# Patent publication US20210244857A1, “PEPTIDE-COATED CALCIUM PHOSPHATE PARTICLES” (Cerapedics, Inc., priority 2016, published 2021)
# Ends that are not written are not given here.
# Experiments:
# [1] = P-15 bound on final washed ABM particles, effect of pretreatment and freezing/drying technique; assay type: physicochemical
# Method: Step 1: PRETREATMENT—ABM is pretreated in a Hypertonic (˜460 mM NaCl) HEPES buffer, pH 7.2, at a 10:1 ratio (ml solution to g ABM) for 24 hours. This solution is decanted off after 24 hours. This wash is repeated with fresh solution for 1 hour or until there is no pH change upon exposure to fresh solution. The final wash solution is decanted and the ABM is vacuum dried. The pretreatment step is performed with agitation of some kind (roller, rotation, etc.).
# Step 2: COATING—A P-15 coating buffer (concentration depends on final desired P-15 coated on ABM) is made using hypertonic HEPES, pH 7.2. Pretreated ABM is coated using a 2:1 ratio (mL solution to g ABM) for 24 hours. This step is performed statically, with no agitation.
# Step 3: WASHING—After the 24 hour coating step, the solution is removed by a rapid vacuum filtration process. The coated ABM is washed 6-12 times in a 10:1 ratio of solution to ABM using hypertonic HEPES buffer, pH 7.2. Vacuum filtration is performed between each wash to remove the solution. After the final wash, the washed ABM is then vacuum dried overnight.
# ABM particles are produced as described in step 1 of Example 1, where step 1 further includes freezing and then drying the ABM particles subjected to hypertonic buffer.
# Paired samples of pretreated ABM particles were freeze-dried (F/D) by two different methods, and a third sample was simply air dried (without any freezing). One sample was placed on a controlled ambient temperature F/D shelf and a vacuum was immediately pulled to initiate rapid evaporative freezing (FD-EC). The second sample was placed on an ambient F/D shelf and slowly frozen by ramped freezing (˜1-2° C. per minute). Once the sample was frozen the vacuum was initiated; this process is considered standard freeze-drying. The F/D process was used for both (a) the pretreatment step 1 and the washing (post-coating) step 3. The third samples was not frozen; the water was removed from the sample by air-drying at both drying steps. The following table indicates the amount of bound P15 on the final washed product. Table 4 indicates the amount of bound P-15 on the final washed ABM particles.
# Paired samples of pretreated ABM particles were F/D by two different methods. One sample was placed on a controlled ambient temperature F/D shelf and a vacuum was immediately pulled to initiate rapid evaporative freezing. The second sample was placed on an uncooled shelf and a vacuum was immediately pulled to initiate evaporative cooling (vacuum oven drying). It should be noted that the rate of cooling is slower for this process due to the shelf temperature and the strength of vacuum. The F/D process was used for both (a) the pretreatment step 1 and the washing (post-coating) step 3. Table 5 indicates the amount of bound P-15 on the final washed ABM particles.
# Four paired samples of pretreated ABM particles were F/D by two methods, alternately performed at the two separate drying steps. Two samples were F/D by vacuum oven drying after the pretreatment step and then dried by either the vacuum oven drying process or by FD-EC (placed on a controlled ambient temperature F/D shelf and a vacuum was immediately pulled to initiate rapid evaporative freezing) method after the P-15 coating step. The other two samples were dried by FD-EC after the pretreatment step and then dried by either the vacuum oven drying process or by FD-EC method after the P-15 coating Table 6 table indicates the amount of bound P-15 on the final washed ABM particles.
# Paired samples of pretreated ABM particles were F/D by two different methods. One sample was rapidly frozen using a blast-freezer. The frozen sample was placed on a cold F/D shelf and a vacuum was immediately pulled. The second samples was placed on an uncooled shelf and a vacuum was immediately pulled to initiate evaporative cooling. The F/D process was used for both (a) the pretreatment step 1 and the washing (post-coating) step 3. […]
# [2] = P-15 bound to ABM particles after pretreatment, coating and washing (ELISA), effect of osmolarity; assay type: physicochemical, Bovine; conditions: Hepes buffer pH 7.2
# Method: (§1) ABM particles were incubated in a buffered solution that contained varying amounts of NaCl to modulate the final osmolarity. The ABM particles were incubated in the solutions for 18-24 hours, rinsed a second time in the same buffer, and dried. The pre-treated surface modified ABM particles were then incubated with P-15 dissolved in the same buffer as used during the pre-treatment step to coat the particles with P-15 peptide. Following the P-15 coating step, the ABM particles were washed repeatedly with the corresponding buffer solution. The amount of bound P-15 was determined using an ELISA test method. The different runs represent different preparations of the same ABM source.
# [3] = as above; assay type: physicochemical; conditions: Hepes buffer pH 7.2, Porcine Cancellous Run #1
# Method: as §1
sequence,measurement,setting,value
"GTPGPQGIAGQRGVV [P-15, cell adhesion (collagen mimetic) peptide coated onto ABM particles]",P-15 ng/g ABM,"[1]; Table 4, Air drying at both drying steps, no freezing",74 ng/g ABM
same,P-15 ng/g ABM,"[1]; Table 4, Rapid freeze in freeze-dryer at pretreatment and post-coating steps",1521 ng/g ABM
same,P-15 ng/g ABM,"[1]; Table 4, Slow freeze in freeze-dryer at pretreatment and post-coating steps",366 ng/g ABM
same,P-15 ng/g ABM,"[1]; Table 5, Intermediate freeze in vacuum oven",308 ng/g ABM
same,P-15 ng/g ABM,"[1]; Table 5, Rapid freeze in freeze-dryer",4201 ng/g ABM
same,P-15 ng/g ABM,"[1]; Table 6, Pretreatment Step FD-EC, P-15 Coating Step FD-EC",351 ng/g ABM
same,P-15 ng/g ABM,"[1]; Table 6, Pretreatment Step FD-EC, P-15 Coating Step Vacuum oven",261 ng/g ABM
same,P-15 ng/g ABM,"[1]; Table 6, Pretreatment Step Vacuum oven, P-15 Coating Step FD-EC",77 ng/g ABM
same,P-15 ng/g ABM,"[1]; Table 6, Pretreatment Step Vacuum oven, P-15 Coating Step Vacuum oven",72 ng/g ABM
same,P-15 ng/g ABM,"[1]; Table 7, Blast-freeze followed by standard freeze-dryer",260 ng/g ABM
same,P-15 ng/g ABM,"[1]; Table 7, Intermediate freeze in vacuum oven",80 ng/g ABM
same,P-15 Concentration Bound to ABM Particles,"[2]; Hypertonic Solution (2.7%saline), Bovine Cancellous Run #1",149 ng-P-15/g-ABM
same,P-15 Concentration Bound to ABM Particles,"[2]; Hypertonic Solution (2.7%saline), Bovine Cancellous Run #2",1024 ng-P-15/g-ABM
same,P-15 Concentration Bound to ABM Particles,"[2]; Hypertonic Solution (2.7%saline), Bovine Cortical Run #1",153 ng ng-P-15/g-ABM
same,P-15 Concentration Bound to ABM Particles,"[2]; Hypertonic Solution (2.7%saline), Bovine Cortical Run #2",105 ng-P-15/g-ABM
same,P-15 Concentration Bound to ABM Particles,"[2]; Hypotonic Solution (0% saline), Bovine Cancellous Run #1",68 ng-P-15/g-ABM
same,P-15 Concentration Bound to ABM Particles,"[2]; Hypotonic Solution (0% saline), Bovine Cancellous Run #2",651 ng-P-15/g-ABM
same,P-15 Concentration Bound to ABM Particles,"[2]; Hypotonic Solution (0% saline), Bovine Cortical Run #1",105 ng ng-P-15/g-ABM
same,P-15 Concentration Bound to ABM Particles,"[2]; Hypotonic Solution (0% saline), Bovine Cortical Run #2",64 ng-P-15/g-ABM
same,P-15 Concentration Bound to ABM Particles,"[2]; Isotonic Solution (0.9% saline), Bovine Cancellous Run #1",129 ng-P-15/g-ABM
same,P-15 Concentration Bound to ABM Particles,"[2]; Isotonic Solution (0.9% saline), Bovine Cancellous Run #2",611 ng-P-15/g-ABM
same,P-15 Concentration Bound to ABM Particles,"[2]; Isotonic Solution (0.9% saline), Bovine Cortical Run #1",116 ng ng-P-15/g-ABM
same,P-15 Concentration Bound to ABM Particles,"[2]; Isotonic Solution (0.9% saline), Bovine Cortical Run #2",66 ng-P-15/g-ABM
same,P-15 Concentration Bound to ABM Particles,[3]; Hypertonic Solution (2.7%saline),376 ng ng-P-15/g-ABM
same,P-15 Concentration Bound to ABM Particles,[3]; Hypotonic Solution (0% saline),231 ng ng-P-15/g-ABM
same,P-15 Concentration Bound to ABM Particles,[3]; Isotonic Solution (0.9% saline),283 ng ng-P-15/g-ABM
